In test [1] the test system is hyperinsulinemic hypoglycemia. To be noted: meta-analysis of six cohorts (1142 subjects); cited from earlier work. The text has this:
Diazoxide, a first-line therapy, is a nondiuretic benzothiadizine originally formulated as a peripheral vasodilator for the treatment of hypertension. […] Octreotide—a synthetic peptide analog of somatostatin—has been frequently used as a second-line therapy to treat patients with CHI who are not res ...

In test [2] the target is T1, FcγRIA (Homo sapiens, UniProt P12314).
T1 construct: purchased
T1 sequence (P12314 16-374): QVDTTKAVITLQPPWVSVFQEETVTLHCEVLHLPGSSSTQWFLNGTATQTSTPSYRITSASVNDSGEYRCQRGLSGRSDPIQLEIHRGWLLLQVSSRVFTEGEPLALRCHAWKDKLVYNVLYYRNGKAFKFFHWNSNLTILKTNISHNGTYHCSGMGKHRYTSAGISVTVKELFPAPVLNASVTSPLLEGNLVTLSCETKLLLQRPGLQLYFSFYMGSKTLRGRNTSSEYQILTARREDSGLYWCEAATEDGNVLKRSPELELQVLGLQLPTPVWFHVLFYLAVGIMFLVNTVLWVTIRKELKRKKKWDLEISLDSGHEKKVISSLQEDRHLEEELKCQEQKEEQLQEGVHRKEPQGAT
As to the kind of experiment: FcγRIA binding by SPR. To be noted: SPR BIACORE T200, 25 °C, steady-state affinity fit; read-out: Binding affinities (KD) FcγRIA. As to the method:
(§1) All experiments were carried out on a BIACORE T200 instrument (GE Healthcare, USA) at 25 °C. Amine coupling chemistry was used to immobilize FcγRs on the surface of a CM5 sensor chip. For activation, a mixture of NHS and EDC solution was injected onto a CM5 sensor chip for 7 min at a flow rate of 10 μL/min. FcγRIA, FcγRIIA, FcγRIIB/C, FcγRIIIA, and FcγRIIIB were immobilized on CM5 chips by injecting 5 μg/mL of FcγRIA, 10 μg/mL of FcγRIIA, 2 μg/mL of FcγRIIIA, 10 μg/mL of FcγRIIIB, and 10 μg/mL of FcγRIIB/C diluted with 10 mM sodium acetate (pH 4.5) onto CM5 chips at a flow rate of 5 μL/min. The target RU was 1500 RU for FcγRIA and FcγRIIA, 3,000 RU for FcγRIIB/C and FcγRIIIB, and 1,000 RU for FcγRIIIA. To deactivate unreacted moieties, the chip surface was blocked with 1 M ethanolamine/HCl (pH 8.5) for 7 min at a flow rate of […]. HMC001 and I.V.-Globulin SN were diluted with running buffer to 500, 250, 125, 62.5, and 31.25 nM. HM15136 was diluted with running buffer to 486, 243, 121.5, 60.75, and 30.38 nM. The test materials were injected for 10 min (for Fc immobilized with FcγRIA and FcγRIIA) or 15 min (for Fc immobilized with FcγRIIIA, FcγRIIIB, and FcγRIIB/C) for association, followed by 10 min-dissociation at 20 μL/min. Binding affinity was evaluated with a steady-state affinity fitting model in BIACORE T200 Evaluation Software version 3.0. […]

The target of test [3] is T2, FcγRIIB/C (Homo sapiens, UniProt P31994).
T2 construct: purchased
T2 sequence (P31994 43-310): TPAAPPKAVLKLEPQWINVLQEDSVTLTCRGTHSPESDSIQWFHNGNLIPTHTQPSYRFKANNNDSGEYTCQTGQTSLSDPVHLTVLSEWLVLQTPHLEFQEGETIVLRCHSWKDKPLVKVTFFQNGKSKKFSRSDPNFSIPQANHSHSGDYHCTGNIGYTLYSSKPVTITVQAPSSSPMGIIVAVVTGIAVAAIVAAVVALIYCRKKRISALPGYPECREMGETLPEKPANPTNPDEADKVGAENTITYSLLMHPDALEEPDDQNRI
As to the kind of experiment: FcγRIIB/C binding by SPR. To be noted: SPR BIACORE T200, 25 °C, steady-state affinity fit; read-out: Binding affinities (KD) FcγRIIB/C.
Description: All experiments were carried out on a BIACORE T200 instrument (GE Healthcare, USA) at 25 °C. Amine coupling chemistry was used to immobilize FcγRs on the surface of a CM5 sensor chip. For activation, a mixture of NHS and EDC solution was injected onto a CM5 sensor chip for 7 min at a flow rate of 10 μL/min. FcγRIA, FcγRIIA, FcγRIIB/C, FcγRIIIA, and FcγRIIIB were immobilized on CM5 chips by injecting 5 μg/mL of FcγRIA, 10 μg/mL of FcγRIIA, 2 μg/mL of FcγRIIIA, 10 μg/mL of FcγRIIIB, and 10 μg/mL of FcγRIIB/C diluted with 10 mM sodium acetate (pH 4.5) onto CM5 chips at a flow rate of 5 μL/min. The target RU was 1500 RU for FcγRIA and FcγRIIA, 3,000 RU for FcγRIIB/C and FcγRIIIB, and 1,000 RU for FcγRIIIA. To deactivate unreacted moieties, the chip surface was blocked with 1 M ethanolamine/HCl (pH 8.5) for 7 min at a flow rate of 10 L/min. […] The test materials were injected for 10 min (for Fc immobilized with FcγRIA and FcγRIIA) or 15 min (for Fc immobilized with FcγRIIIA, FcγRIIIB, and FcγRIIB/C) for association, followed by 10 min-dissociation at 20 μL/min. Binding affinity was evaluated with a steady-state affinity fitting model in BIACORE T200 Evaluation Software version 3.0. Blank-subtracted sensograms (RU form reference channel and blanks were subtracted) were used for evaluation.

For test [4], the target named is T3, FcγRIIA (Homo sapiens, UniProt P12318).
T3 construct: purchased
T3 sequence (P12318 34-317): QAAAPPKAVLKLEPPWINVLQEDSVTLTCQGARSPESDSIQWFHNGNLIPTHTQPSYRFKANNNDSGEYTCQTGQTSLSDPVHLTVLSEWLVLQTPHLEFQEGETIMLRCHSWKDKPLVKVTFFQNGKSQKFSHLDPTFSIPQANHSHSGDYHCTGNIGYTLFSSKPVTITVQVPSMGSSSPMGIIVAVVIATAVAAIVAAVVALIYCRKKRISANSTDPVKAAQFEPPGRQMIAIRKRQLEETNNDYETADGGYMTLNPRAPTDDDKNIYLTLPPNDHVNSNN
Kind of test: FcγRIIA binding by SPR. To be noted: SPR BIACORE T200, 25 °C, steady-state affinity fit; read-out: Binding affinities (KD) FcγRIIA. As to the method: as §1
For orientation: SPR reads the build-up and loss of mass on a sensor chip optically.

For test [5], the target named is T4, FcγRIIIA (Homo sapiens, UniProt P08637).
T4 construct: purchased
T4 sequence (P08637 17-254): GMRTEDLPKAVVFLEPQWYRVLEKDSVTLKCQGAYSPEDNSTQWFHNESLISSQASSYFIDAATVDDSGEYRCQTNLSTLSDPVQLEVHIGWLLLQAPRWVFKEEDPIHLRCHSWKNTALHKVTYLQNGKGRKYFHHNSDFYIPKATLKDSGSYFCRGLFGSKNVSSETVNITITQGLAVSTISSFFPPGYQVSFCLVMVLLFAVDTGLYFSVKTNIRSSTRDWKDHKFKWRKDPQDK
As to the kind of experiment: FcγRIIIA binding by SPR. To be noted: SPR BIACORE T200, 25 °C, steady-state affinity fit; read-out: Binding affinities (KD) FcγRIIIA. The protocol:
as §1

The target in test [6] is T5, FcγRIIIB (Homo sapiens, UniProt O75015).
T5 construct: purchased
T5 sequence (O75015 17-233): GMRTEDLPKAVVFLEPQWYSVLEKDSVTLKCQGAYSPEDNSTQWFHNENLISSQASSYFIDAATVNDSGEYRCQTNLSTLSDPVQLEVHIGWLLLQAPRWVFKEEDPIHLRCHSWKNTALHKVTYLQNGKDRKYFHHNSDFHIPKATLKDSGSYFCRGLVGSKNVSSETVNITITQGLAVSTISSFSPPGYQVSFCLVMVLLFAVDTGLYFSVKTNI
As to the kind of experiment: FcγRIIIB binding by SPR. To be noted: SPR BIACORE T200, 25 °C, steady-state affinity fit; read-out: Binding affinities (KD) FcγRIIIB. The protocol:
as §1

The target in test [7] is human C1q (Homo sapiens, UniProt P02745+P02746+P02747). As to the kind of experiment: C1q binding by SPR. The settings on record: SPR BIACORE T200, test material immobilized, steady-state affinity fit; read-out: Binding affinities (KD) C1q.
Chain of human C1q (P02745 23-245): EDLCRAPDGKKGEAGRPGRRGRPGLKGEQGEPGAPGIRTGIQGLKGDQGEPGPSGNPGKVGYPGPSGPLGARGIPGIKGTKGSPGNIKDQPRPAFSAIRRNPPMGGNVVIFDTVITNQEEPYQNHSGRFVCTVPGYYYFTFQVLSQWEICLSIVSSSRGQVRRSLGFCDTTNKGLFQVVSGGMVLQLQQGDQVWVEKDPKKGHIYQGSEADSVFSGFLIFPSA
Chain of human C1q (P02746 28-253): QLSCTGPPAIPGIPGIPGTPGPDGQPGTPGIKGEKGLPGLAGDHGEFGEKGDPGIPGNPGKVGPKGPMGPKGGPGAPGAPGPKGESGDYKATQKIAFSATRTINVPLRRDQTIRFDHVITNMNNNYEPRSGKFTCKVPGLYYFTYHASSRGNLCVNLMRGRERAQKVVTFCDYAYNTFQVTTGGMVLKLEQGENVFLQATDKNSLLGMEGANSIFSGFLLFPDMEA
Chain of human C1q (P02747 29-245): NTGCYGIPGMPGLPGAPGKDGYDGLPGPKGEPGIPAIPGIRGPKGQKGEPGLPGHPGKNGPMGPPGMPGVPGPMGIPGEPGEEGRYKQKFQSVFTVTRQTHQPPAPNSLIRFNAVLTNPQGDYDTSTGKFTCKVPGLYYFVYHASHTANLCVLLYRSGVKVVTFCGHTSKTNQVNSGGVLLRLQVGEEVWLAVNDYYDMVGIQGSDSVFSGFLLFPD
Description: The target immobilization of the three materials was 3000 RU. To stabilize the sensor chip, running buffer (HBS-EP) was injected for 10 min, followed by 10 min dissociation at 25 μL/min before test material injection. Then, regeneration buffer was injected for 30 s at 25 μL/min; this step was repeated three times. C1q was diluted with running buffer to 50, 25, 12.5, 6.25, and 3.125 nM and injected for 6 min for association, followed by 10-min dissociation at 25 μL/min. The remaining C1q was regenerated with regeneration buffer for 30 s at 25 μL/min; this step was repeated three times. Binding affinity was evaluated with a steady-state affinity fitting model in BIACORE T200 Evaluation Software version 3.0. Blank-subtracted sensograms (RU form reference channel and blank were subtracted) were used for evaluation.

Some results are limits rather than exact numbers.

Turning to `CC1=NS(=O)(=O)c2cc(Cl)ccc2N1` [diazoxide, Diazoxide], the response rate in test [1] is 71%.

With “HMC001: Fc fragment of human immunoglobulin G4, derived from Escherichia coli, lacks glycosylation”, the Kd in test [2], in test [3], in test [4], in test [5], in test [6] and in test [7] was over 500 nM each time.

These data come from paper PMC9537296 (Scientific Reports, 2022).
